{
  "source": "paper PMC9688528",
  "assay_in_all_cases": "target-induced aptamer displacement, RDV release by UV-vis at 247 nm",
  "key": {"[1]": {"system": "alkaline phosphatase (AKP)", "conditions": "20 U/mL AKP; 3'-SH on aptamer; 5'-COOH on complementary strand; Release assay buffer and temperature not given; Au-DNA stored in PBS (137 mM NaCl, 2.7 mM KCl, 10 mM Na2HPO4, 1.75 mM KH2PO4, 50 mM MgCl2, pH 7.4)"}, "immunoglobulin G (IgG)": {"system": "immunoglobulin G (IgG)", "conditions": "2 uM IgG; 3'-SH on aptamer; 5'-COOH on complementary strand; Release assay buffer and temperature not given; Au-DNA stored in PBS (137 mM NaCl, 2.7 mM KCl, 10 mM Na2HPO4, 1.75 mM KH2PO4, 50 mM MgCl2, pH 7.4)"}, "cytochrome c": {"system": "cytochrome c", "conditions": "2 uM cytochrome c; 3'-SH on aptamer; 5'-COOH on complementary strand; Release assay buffer and temperature not given; Au-DNA stored in PBS (137 mM NaCl, 2.7 mM KCl, 10 mM Na2HPO4, 1.75 mM KH2PO4, 50 mM MgCl2, pH 7.4)"}, "fibrinogen (FIB)": {"system": "fibrinogen (FIB)", "conditions": "2 uM FIB; 3'-SH on aptamer; 5'-COOH on complementary strand; Release assay buffer and temperature not given; Au-DNA stored in PBS (137 mM NaCl, 2.7 mM KCl, 10 mM Na2HPO4, 1.75 mM KH2PO4, 50 mM MgCl2, pH 7.4)"}, "hemoglobin (HGB)": {"system": "hemoglobin (HGB)", "conditions": "2 uM HGB; 3'-SH on aptamer; 5'-COOH on complementary strand; Release assay buffer and temperature not given; Au-DNA stored in PBS (137 mM NaCl, 2.7 mM KCl, 10 mM Na2HPO4, 1.75 mM KH2PO4, 50 mM MgCl2, pH 7.4)"}},
  "data": [
    {"sequence": "GCTGGATGTCGCTTACGACAATATTCCTTAGGGGCACCGCTACATTGACACATCCAGC / TTGTACTGGCTCATAGCTGGATGTGTCAATGTAGCGGTGCCCCTAAGGAATATTGTCGTAAGCG", "values": [
      {"measurement": "binding signal (% of N protein signal)", "setting": "[1]", "value": 11.6},
      {"measurement": "binding signal (% of N protein signal)", "setting": "immunoglobulin G (IgG)", "value": 7.05},
      {"measurement": "binding signal (% of N protein signal)", "setting": "cytochrome c", "value": 9.13},
      {"measurement": "binding signal (% of N protein signal)", "setting": "fibrinogen (FIB)", "value": 4.56},
      {"measurement": "binding signal (% of N protein signal)", "setting": "hemoglobin (HGB)", "value": 6.22}
    ]}
  ]
}
